The target of this data set is PABPC1 (residues 1-383) (Homo sapiens, UniProt P11940 P11940:1-383). The data set can be described thus: FP; 50 mM HEPES, 5 mM EDTA, 250 mM KCl, 10 mM DTT, 0.5 mg/mL BSA, 0.05% Tween-20, yeast total RNA competitor. The following applies: label: Cy3 or 3' biotin. How it is done:
Equilibrium dissociation constants were determined by florescence anisotropy measurements of either unmodified adenosine 12 nucleotide RNA or the Poly(A) SPOT-ON to recombinant human PABPC1 (residues 1-383). Binding reactions were conducted in 50 μL of buffer containing 50 mM HEPES, 5 mM EDTA, 250 mM KCl, 10 mM DTT, 0.5 mg/mL BSA, 0.05% Tween-20, 0.1 mg/mL yeast competitor total RNA (Ambion), and 0.5 nM Cy3-labeled RNA. Measurements were recorded on a Tecan Spark multimode plate reader in triplicate. Data were fit using Kalidagraph as described⁶³

PABPC1 (residues 1-383), sequence (P11940 1-383, one chain of several): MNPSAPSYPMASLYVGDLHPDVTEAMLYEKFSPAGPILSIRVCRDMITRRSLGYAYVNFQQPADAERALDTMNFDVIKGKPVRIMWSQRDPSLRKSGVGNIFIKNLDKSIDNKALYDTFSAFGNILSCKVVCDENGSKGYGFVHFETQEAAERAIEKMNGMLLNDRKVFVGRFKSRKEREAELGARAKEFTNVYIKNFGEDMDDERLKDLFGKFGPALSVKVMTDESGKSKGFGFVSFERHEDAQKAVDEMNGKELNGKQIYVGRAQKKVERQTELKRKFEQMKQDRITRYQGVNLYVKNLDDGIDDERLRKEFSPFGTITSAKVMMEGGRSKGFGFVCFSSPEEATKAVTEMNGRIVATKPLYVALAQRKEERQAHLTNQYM

With AAAAAAAAAAAA (ssRNA, 2'-OMe at all riboses; PS at the 5'-most and 3'-most linkages) [Poly(A) SPOT-ON], the Kd turned out to be 301 nM.

The values above are taken from patent US20200087662, “INHIBITION OF POLY(A) BINDING PROTEIN AND THE TREATMENT OF PAIN” (Board of Regents, The University of Texas System, published 2020).
